Laboratory results: the supplement of paper PMC10724198
± gives the standard deviation of the averaged measurements.

What was measured:
[1] = tested on: Saccharomyces cerevisiae; assay: protein stability index of tFT-peptide fusion (C-terminal peptide) (PSI (0-1 scale)); higher = more stable (slower turnover); settings: genetic background: wild type; temperature: 30 C
[2] = tested on: Saccharomyces cerevisiae; assay: as above
Method: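 MPS profiling in S. cerevisiae of the tFT-X12 degron library: putative degron peptides plus stable controls, 12 aa, fused to the C-terminus of a sfGFP-mCherry timer. Cells are FACS-sorted into 8 mCherry/sfGFP bins and deep-sequenced. PSI runs from 0 (unstable) to 1 (stable). Backgrounds are wild type, das1Δ and doa10Δ at 30 °C, and wild type, das1Δ, cdc34-1 and cdc53-1 at 37 °C; 2-3 technical replicates each.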

[3] = genetic background: cdc34-1, temperature: 37 C
[4] = genetic background: cdc53-1, temperature: 37 C
[5] = genetic background: das1 deletion, temperature: 30 C
[6] = genetic background: das1 deletion, temperature: 37 C
[7] = genetic background: doa10 deletion, temperature: 30 C
[8] = genetic background: wild type, temperature: 30 C
[9] = genetic background: wild type, temperature: 37 C
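Further: PSI is a weighted mean of sequencing reads over stability bins, variants kept only with over 10 reads, mCherry proximal and sfGFP distal, peptide attached via GGGS linker.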

Sequence: PGHICVPVLGTA
- protein stability index [1]: 0.447 ± 0.027
- protein stability index [2, 3]: 0.453 ± 0.021
- protein stability index [2, 4]: 0.467 ± 0.0061
- protein stability index [2, 5]: 0.348 ± 0.037
- protein stability index [2, 6]: 0.513 ± 0.0077
- protein stability index [2, 7]: 0.3072 ± 0.003
- protein stability index [2, 8]: 0.357 ± 0.027
- protein stability index [2, 9]: 0.517 ± 0.036

Sequence: PGSIGVVIAVRS
- protein stability index [1]: 0.464 ± 0.0078
- protein stability index [2, 3]: 0.461 ± 0.019
- protein stability index [2, 4]: 0.512 ± 0.013
- protein stability index [2, 5]: 0.345 ± 0.044
- protein stability index [2, 6]: 0.574 ± 0.02
- protein stability index [2, 7]: 0.2863 ± 0.0007
- protein stability index [2, 8]: 0.363 ± 0.015
- protein stability index [2, 9]: 0.517 ± 0.0066

Sequence: PGVWVVILRWWV
- protein stability index [1]: 0.152 ± 0.01
- protein stability index [2, 3]: 0.0876 ± 0.044
- protein stability index [2, 4]: 0.179 ± 0.011
- protein stability index [2, 5]: 0.123 ± 0.02
- protein stability index [2, 6]: 0.243 ± 0.035
- protein stability index [2, 7]: 0.0879 ± 0.0095
- protein stability index [2, 8]: 0.0841 ± 0.034
- protein stability index [2, 9]: 0.182 ± 0.011

Sequence: PIHILTHTYIGR
- protein stability index [1]: 0.738 ± 0.018
- protein stability index [2, 3]: 0.669 ± 0.028
- protein stability index [2, 4]: 0.7695 ± 0.00066
- protein stability index [2, 5]: 0.636 ± 0.025
- protein stability index [2, 6]: 0.719 ± 0.013
- protein stability index [2, 7]: 0.643 ± 0.014
- protein stability index [2, 8]: 0.664 ± 0.012
- protein stability index [2, 9]: 0.707 ± 0.013

Sequence: PILRGRPTPAIL
- protein stability index [1]: 0.708 ± 0.021
- protein stability index [2, 3]: 0.691 ± 0.031
- protein stability index [2, 4]: 0.731 ± 0.013
- protein stability index [2, 5]: 0.662 ± 0.018
- protein stability index [2, 6]: 0.7426 ± 0.0046
- protein stability index [2, 7]: 0.681 ± 0.018
- protein stability index [2, 8]: 0.668 ± 0.023
- protein stability index [2, 9]: 0.7026 ± 0.0044

Sequence: PLLVVPVPRALY
- protein stability index [1]: 0.382 ± 0.021
- protein stability index [2, 3]: 0.675 ± 0.082
- protein stability index [2, 4]: 0.72 ± 0.0074
- protein stability index [2, 5]: 0.626 ± 0.011
- protein stability index [2, 6]: 0.733 ± 0.018
- protein stability index [2, 7]: 0.242 ± 0.0057
- protein stability index [2, 8]: 0.281 ± 0.013
- protein stability index [2, 9]: 0.491 ± 0.038

Sequence: PLYFSVFSLLFL
- protein stability index [1]: 0.473 ± 0.012
- protein stability index [2, 3]: 0.522 ± 0.03
- protein stability index [2, 4]: 0.556 ± 0.048
- protein stability index [2, 5]: 0.489 ± 0.015
- protein stability index [2, 6]: 0.631 ± 0.025
- protein stability index [2, 7]: 0.478 ± 0.026
- protein stability index [2, 8]: 0.41 ± 0.021
- protein stability index [2, 9]: 0.539 ± 0.013

Sequence: PPLLLFLSLAFL
- protein stability index [1]: 0.381 ± 0.054
- protein stability index [2, 3]: 0.322 ± 0.02
- protein stability index [2, 4]: 0.407 ± 0.012
- protein stability index [2, 5]: 0.285 ± 0.027
- protein stability index [2, 6]: 0.449 ± 0.015
- protein stability index [2, 7]: 0.239 ± 0.012
- protein stability index [2, 8]: 0.271 ± 0.028
- protein stability index [2, 9]: 0.441 ± 0.009

Sequence: PPPLPPPSPSRP
- protein stability index [1]: 0.421 ± 0.0055
- protein stability index [2, 3]: 0.66 ± 0.024
- protein stability index [2, 4]: 0.7072 ± 0.0012
- protein stability index [2, 5]: 0.677 ± 0.02
- protein stability index [2, 6]: 0.7025 ± 0.0061
- protein stability index [2, 7]: 0.695 ± 0.026
- protein stability index [2, 8]: 0.6727 ± 0.0031
- protein stability index [2, 9]: 0.68331 ± 0.00024

Sequence: PPPPPPLPSSFP
- protein stability index [1]: 0.449 ± 0.026
- protein stability index [2, 3]: 0.679 ± 0.024
- protein stability index [2, 4]: 0.749 ± 0.0084
- protein stability index [2, 5]: 0.645 ± 0.009
- protein stability index [2, 6]: 0.7094 ± 0.0028
- protein stability index [2, 7]: 0.666 ± 0.033
- protein stability index [2, 8]: 0.655 ± 0.01
- protein stability index [2, 9]: 0.7063 ± 0.0068

Sequence: PPPYPPPPARSL
- protein stability index [1]: 0.5 ± 0.014
- protein stability index [2, 3]: 0.6336 ± 0.00079
- protein stability index [2, 4]: 0.6951 ± 0.0027
- protein stability index [2, 5]: 0.673 ± 0.016
- protein stability index [2, 6]: 0.6884 ± 0.0056
- protein stability index [2, 7]: 0.6825 ± 0.0033
- protein stability index [2, 8]: 0.689 ± 0.022
- protein stability index [2, 9]: 0.6823 ± 0.0034

Sequence: PPRPLHPPCRPP
- protein stability index [1]: 0.702 ± 0.013
- protein stability index [2, 3]: 0.64 ± 0.021
- protein stability index [2, 4]: 0.6975 ± 0.00072
- protein stability index [2, 5]: 0.66 ± 0.033
- protein stability index [2, 6]: 0.6943 ± 0.0015
- protein stability index [2, 7]: 0.659 ± 0.024
- protein stability index [2, 8]: 0.657 ± 0.013
- protein stability index [2, 9]: 0.688 ± 0.011

Sequence: PPSPPLPPPSPF
- protein stability index [1]: 0.34 ± 0.046
- protein stability index [2, 3]: 0.671 ± 0.013
- protein stability index [2, 4]: 0.773 ± 0.019
- protein stability index [2, 5]: 0.69 ± 0.0097
- protein stability index [2, 6]: 0.742 ± 0.041
- protein stability index [2, 7]: 0.694 ± 0.036
- protein stability index [2, 8]: 0.67 ± 0.018
- protein stability index [2, 9]: 0.707 ± 0.016

Sequence: PPSPPPPPPSPF
- protein stability index [1]: 0.304 ± 0.025
- protein stability index [2, 3]: 0.695 ± 0.031
- protein stability index [2, 4]: 0.7371 ± 0.0055
- protein stability index [2, 5]: 0.683 ± 0.0043
- protein stability index [2, 6]: 0.7378 ± 0.0022
- protein stability index [2, 7]: 0.721 ± 0.031
- protein stability index [2, 8]: 0.679 ± 0.033
- protein stability index [2, 9]: 0.719 ± 0.034

Sequence: PRHERPPRDNGH
- protein stability index [1]: 0.709 ± 0.025
- protein stability index [2, 3]: 0.674 ± 0.041
- protein stability index [2, 4]: 0.72232 ± 0.00022
- protein stability index [2, 5]: 0.655 ± 0.011
- protein stability index [2, 6]: 0.73 ± 0.013
- protein stability index [2, 7]: 0.6522 ± 0.0063
- protein stability index [2, 8]: 0.654 ± 0.025
- protein stability index [2, 9]: 0.702 ± 0.022

Sequence: PRPSPPLPPPSS
- protein stability index [1]: 0.4726 ± 0.0028
- protein stability index [2, 3]: 0.665 ± 0.082
- protein stability index [2, 4]: 0.712 ± 0.011
- protein stability index [2, 5]: 0.643 ± 0.027
- protein stability index [2, 6]: 0.739 ± 0.019
- protein stability index [2, 7]: 0.673 ± 0.032
- protein stability index [2, 8]: 0.677 ± 0.021
- protein stability index [2, 9]: 0.688 ± 0.017

Sequence: PRRVTVPGVPPL
- protein stability index [1]: 0.71 ± 0.014
- protein stability index [2, 3]: 0.672 ± 0.018
- protein stability index [2, 4]: 0.736 ± 0.033
- protein stability index [2, 5]: 0.669 ± 0.035
- protein stability index [2, 6]: 0.737 ± 0.014
- protein stability index [2, 7]: 0.643 ± 0.01
- protein stability index [2, 8]: 0.66 ± 0.01
- protein stability index [2, 9]: 0.7039 ± 0.0025

Sequence: PRSLHVLSRFLP
- protein stability index [1]: 0.691 ± 0.018
- protein stability index [2, 3]: 0.692 ± 0.06
- protein stability index [2, 4]: 0.7371 ± 0.0014
- protein stability index [2, 5]: 0.651 ± 0.017
- protein stability index [2, 6]: 0.763 ± 0.037
- protein stability index [2, 7]: 0.599 ± 0.048
- protein stability index [2, 8]: 0.606 ± 0.031
- protein stability index [2, 9]: 0.712 ± 0.02

Sequence: PSRRLRHFATSP
- protein stability index [1]: 0.741 ± 0.023
- protein stability index [2, 3]: 0.623 ± 0.058
- protein stability index [2, 4]: 0.68 ± 0.021
- protein stability index [2, 5]: 0.736 ± 0.037
- protein stability index [2, 6]: 0.6646 ± 0.0047
- protein stability index [2, 7]: 0.747 ± 0.038
- protein stability index [2, 8]: 0.703 ± 0.0095
- protein stability index [2, 9]: 0.6412 ± 0.00013
